Laboratory results: the supplement of paper PMC12636428

System: Saccharomyces cerevisiae
Experiment: transcriptional activation domain activity (GFP:mCherry ratio, weighted mean of sorted bins, harmonized to initial dataset scale) (arbitrary fluorescence ratio units); higher = stronger transcriptional activation
Conditions: beta-estradiol 1 µM; induction time 4 h
Procedure, shortened: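 Values are activation activity, found as the read-weighted mean of bin median fluorescence, averaged across barcodes and then mapped linearly onto the initial dataset scale. Barcoded protein tiles fused to an estradiol-inducible synthetic transcription factor were integrated at the URA3 locus of GFP-reporter yeast diploids. Cells were induced for 4 hours at 30 °C with 1 uM beta-estradiol in SC, sorted into 8 bins by GFP:mCherry ratio, and barcode-sequenced, with tiles under 50 reads discarded.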

Sequence	transcriptional activation domain activity
MLLIWLYALKTGFVLSAVVSFGFWYSISLFFMYFIGKPLFHDSFFLFFSSFFL	57200
GAYYLVSGLNGFELYEFDDNYHCGCCRDVHYRLFWFLIETISVLHGRWVFLQV	28800
VRTVIESNRRLNLAVVSKSQRWRCSKIWIPGLLMHVFNFWCIVYMITFNAVWD	49800
SLFFSVWALSQTWCVGHRRCSPMHLGTYYDAFIFLGISGMWKWSLLLIVIYRF	34000
VCVCVWELVLVLVVWCCHCFSFVHSLHFLPWLLFSSPLVFLFPFPFFFFCLFL	68600
LAYLVMQGFFRTFGLMCFNFDSAFRLAVFFIPNFVEYTGYILPVISMQRWLFW	63100
EVYLLRFEQCLTRAMTLIRMFFVGSLRALTQDVSRRLAEKDVSQTAQTHLLYT	46300
AAATAEGAASSRQPSERERKREREREEERERGKEREREKERKQAAEASTSANE	58800
AFEVSGKGRSRTREKVTLDLEELAGGAIDMSKSDLEHLVIHLFIKSYLRMSFV	43100
IAMQPGEHQYDFEAHDFGLDLSDDLITQLEAGIGEYAWGSMPMDGNFWDQLYW	127000
LLQLWYMHKSLVLADPTLVCPLAFCFYNLSSIINGLVYFDQFAFLSTLHLLLV	25400
DPTSRAPTAVRVRVKHSSGEEQEEEERLPADGVVICAGPWTGRVARRLLGEKV	37200
LEGPPLEKTGSDILQQVCNVLPSFEQSSKIITDFFNTELETNEVSEVLDKTKI	49900
TRSKKSAPRTSESSEDEEQRPSSRPSSRASRPASRASASRKRSDSTGTAGGGE	< 6570
MVSILLFFLSSAFLLTYPYPLLNLALYLLLMFIFSTLYSLTYLLLGFFFFFLA	58600
EAVKKSAERRDSATKSTSPAPAKEEKKEEGKKPEKKEAKPDDKKGEEAGEDKG	10800
GLANYLKPVHDQKLIIFIEILILLWAVLVYSTVQVARGATGFYLPTVLYNIYL	49300
FQTIHVDASCIGIASPLVHVELQPDLCGRKFPELIGIDLTAATLVRLLSLLCL	43000
MATRHVSAANNANKPRACLTCRTSKHKCDGNDRSTAPCSRCLRTGKSCIWPAK	33800
PKRKRAAPKKKDAEDNTEEKPKRGRKKKEENGDAEEKPKKAPVRKARATKKVE	< 6570
MGVLLVDFLTHWILFLFCSWFMLFSFGRFFGFSGSLLVRFLPDSDLLMFLVLL	70600

Sequence	transcriptional activation domain activity
LTNLNEIDFTNMFCNDNFIQNYNQGLMELLTEPTPGPSSSSCILPSTPTRPLS	83000
MLAGAFLPLLFGFFFFSFPTSHTPPFHLLPPGFQFLPVSTSFSYFFCFCFFFP	39100
KPHGKQAAESTRGQSTTGTNSTTSNSSRASGSRRQETDRGKEGKSNKASSSSG	21900
FLLSILFLLSFFYSFFSFSLFIFDRLCQFSHFVDLPSLHYLSLCVFLSILCLF	37100
EVNYLYGLILLQFYTGFIHDIIFGSGHLPFLPLMITSIYCSLGVVYGWGYFML	51000
GESNASLTKTLDSVLRNCFPQRSRMVLPVELPLDVFVCIVHFLLVRQFEYGQE	49700
PSGGLFGNNNASTTTGGIGLFGNNNAAASTGGGLFGKPAASTTTATTGGLFGA	17400
EKERGRERERKERKVNGAWIKTKPKKRRDDSARARRHTRRRDVSSSASPTREM	25800
MNLLFITFFLLVMWVVWFICVVVPFFLLLLLCFFSFLFFRLFGAGWLGWVGNF	42500
MSNGSSFVQCIDTRLCLLYSLVFREHMAFHPIISSFLFLIRLLILLASLFLFF	48500
TISYLILAGSDYFEWCYLSIYQYSTLCNSSLLDVWRDIQYLWILIMFIWNILP	52100
TTKPKEASKPKEDPKPRSKSPVKKEETKVEKPKEDPPKAEAKSIPATTAAAAV	59300
TGAGTGAFGSTNNTTSNGGIFGSQPPATGNAFGGGGAFGQNKPATGFGAAPST	40200
PKEAVASTPEEPAASEPVAAPALAAAEPVAAAEAPAAAPVPETKAEEVSIQHL	23600
NTPPAKKKRDGKKKAAAAGDMGEGEGGGKKVRKPRKDAGTKRGPNKRTAGATG	41100
DTNLPTNPEAIQLHGDEDIKAWLVLAKNLAINPSRILVVLHRAVRGTQTPALG	40400
GVDPATKEKKVPSDVLEEPPTLKESLQVLYKYCILCFNLNRKRVVLQFIASFL	73300
APAQPAATGGGLFGSGATGTTGGFGSNTAGGFGTGGGFGAKPAFGATPSTTGG	15600
AFVLFLIYLTFFCWLCFATSASWVWSEILSDGQYNESFMPVNYVLLAVLSGII	53800
MLGPFSVFLSVFPPFAAGFGTALFPFFFSCCLCFCCWCTSFALFAPLTALFAV	53300
